“Also recorded” adds a separate entry of the source.
Assays:
Format in all cases: cell-based, human
[1] = tested on: HILO transcriptome; assay: Bulk RNA-Seq transcriptional changes in HILOs; conditions: WNT4 100 ng/ml for days 26-33
Description: Total RNA was isolated from cell pellets treated with RNAlater (Invitrogen) using the RNeasy micro kit (Qiagen) and treated with DNaseI (Qiagen) for 30 minutes at room temperature. Sequencing libraries were prepared from 100-500 ng total RNA using the TruSeq RNA Sample Preparation Kit v2 (Illumina) according to the manufacturer's protocol. Briefly, mRNA was purified, fragmented, and used for first- and second-strand cDNA synthesis followed by adenylation of 3′ ends. Samples were ligated to unique adapters and PCR amplified. Libraries were then validated using the 2100 BioAnalyzer (Agilent), normalized and pooled for sequencing.
RNA-Seq libraries prepared from 3 biological replicates for each experimental condition were sequenced on the Illumina HiSeq 2500 using bar-coded multiplexing and a 100 bp read length. […] This yielded a median of 29.9M usable reads per sample. Short read sequences were mapped to a UCSC hg19 reference sequence using the RNA-Seq aligner STAR (A. Dobin et al., 2013, Bioinformatics, 29:15-21). […] Transcript expression was calculated as gene-level relative abundance in fragments per kilobase of exon model per million (fpkm) mapped fragments and employed correction for transcript abundance bias (A. Roberts et al., 2011, Bioinformatics, 27:2325-2329). […] Scale of heatmaps was determined by Z-score (FIG. 2A, FIG. 3D and FIG. 3G).

[2] = tested on: chromatin accessibility in HILO cells; assay: ATAC-Seq chromatin accessibility in HILOs; conditions: sorted GFP+ cells, WNT4 treatment
From the text: […] D. Buenrostro et al., 2015, Current Protocols in Molecular Biology, 109:21-29. Reads were aligned by Bowtie to hg19, and peaks were called by HOMER using default settings. Differential peaks and motif analyses from 2 biological duplicates were identified using HOMER essentially as instructed (see, e.g., S. Heinz et al., 2010, J. Mol. Cell, 38:576-589). Detailed methods for HOMER are freely available, e.g., at http://http://homer.salk.edu/homer/. Briefly, the program searches against the target and background sequences for enrichment of known motifs, and returns motifs enriched with a threshold of 1.5-fold change and a p-value of less than 0.05. Promoter regions, defined as 1 kilobase (kB) upstream from the transcription start site, of genes with enhanced chromatin accessibility upon Wnt4 treatment, were interrogated for enriched motifs of 8-16 bp using HOMER motif analysis.

[3] = tested on: wHILO cells; assay: Immunohistochemistry and flow cytometry of cell composition
Description: Secondary antibodies were coupled to Alexa 568, 647 (Life Technologies), and IHC staining was visualized by confocal microscopy (ZEISS) or fluorescence microscopy. Hoechst 33342 (Thermo Scientific, 62249, 1 μg/ml final concentration) was used for nuclear staining.
Clusters at indicated stages were dissociated with TrypLE (GIBCO) with 20 ug/ml DNase for 12 minutes at 37° C. and then were fixed with 4% PFA for 10 minutes at room temperature. Clusters were then permeabilized with 0.2% Triton X for 10 min, blocking with 10% goat serum for 30 min and stained for various intracellular markers with antibodies, c-peptide, (1/100, abcam, ab30477), PDX-1 (1/100, BD, 562161), NKX6-1 (1/100, BD, 563338), Chromogranin A (1/100, BD, 564583), MAFA (1/100, abcam, ab264583), MAFB (1/100, abcam, ab66506), Glucagon (1/100, abcam, ab82270), Somatostatin (1/100, abcam, 108456) for analysis on a BD Biosciences LSRII instrument. Data were analysed by FlowJo software. Secondary antibodies for c-peptide, Glucagon and Somatostatin were coupled to Alexa 647 (Life Technologies).

[4] = tested on: insulin-expressing cells of HILOs; assay: Mitochondrial content (MitoTracker) and insulin-GFP by flow cytometry
From the text: FIGS. 8A-8H provide images, graphs, a schematic and a diagram showing results related to WNT4 mediated insulin-GFP expression and WNT4-driven metabolic maturation. FIG. 8A presents representative images of mitochondrial content, indicated by MitoTracker (red) staining, in PBS and WNT4 treated HILOs (scale bar, 100 μm). FIG. 8B presents graphs of flow cytometry quantification of insulin expression (GFP) and mitochondrial content in HILOs treated with recombinant human WNT4 (rhWNT4), WNT5A (rhWNT5A), or conditioned medium (CM) from control or WNT5A overexpressing fibroblasts (n=3). Error bars represent SEM. *p<0.05. FIG. 8C presents a gene ontology of transcriptional changes induced by WNT4 treatment (100 ng/ml WNT4 from day26 to day33) in HILOs. […] Error bars represent SEM. *p<0.05. FIG. 8E presents a Venn diagram showing overlap between WNT4-induced increases in chromatin accessibility in GFP^+ cells and increases in HILO gene expression (upper panel), and gene ontology pathways enriched in the intersection gene set. […] For FIGS. 8G and 8H, postnatal islets (day P11-14) from WT and β cell specific ERRγKO mice were cultured with or without rhWNT4 (100 ng/ml) for >5 days.

B1: WNT4: recombinant human Wnt4 protein (R&D Systems), non-canonical WNT maturation factor (protein, UniProt P56705 23-351, looked up)
Protein Wnt-4: SNWLYLAKLSSVGSISEEETCEKLKGLIQRQVQMCKRNLEVMDSVRRGAQLAIEECQYQFRNRRWNCSTLDSLPVFGKVVTQGTREAAFVYAISSAGVAFAVTRACSSGELEKCGCDRTVHGVSPQGFQWSGCSDNIAYGVAFSQSFVDVRERSKGASSSRALMNLHNNEAGRKAILTHMRVECKCHGVSGSCEVKTCWRAVPPFRQVGHALKEKFDGATEVEPRRVGSSRALVPRNAQFKPHTDEDLVYLEPSPDFCEQDMRSGVLGTRGRTCNKTSKAIDGCELLCCGRGFHTAQVELAERCSCKFHWCCFVKCRQCQRLVELHTCR
- number of genes with decreased expression [1]: 1354 genes
- number of genes with increased expression [1]: 1581 genes
- genes with both increased chromatin accessibility and induced expression [2]: 123 genes
- cellular composition of HILOs [3]: not altered
- proportion of insulin expressing cells ([4]; GFP sorting, HILOs with and without WNT treatment): not affected
- mitochondrial content / number ([4]; MitoTracker, HILOs / insulin-expressing cells): increased mitochondrial number; also recorded: increased the mitochondrial content

— US12637662B2, “Cells, islets, and organoids that evade immune detection and autoimmunity, methods of production and use thereof” (SALK INSTITUTE FOR BIOLOGICAL STUDIES, priority 2018, dated 2026)
